# Results taken from patent US20110046043A1 (NEW YORK UNIVERSITY, published 2011).
# *1 amine or outer side, *2 acyl side, *3 side chain or, on linkers, in order; H or OH if unused. Where no end group is shown, it is not given here. [ ]: non-standard residue; d: D form. Suc = O=C(CCC(=O)[*:2])[*:1]
# T1: IZN17 (peptide 11, AcIKKEIEAIKKEQEAIKKKIEAIEKLLQLTVWGIKQLQARIL-NH2) (N-terminal acetyl (Ac); C-terminal amide (NH2))
# T1 construct: also called peptide IZN17; 1ZN17
# T1 chain: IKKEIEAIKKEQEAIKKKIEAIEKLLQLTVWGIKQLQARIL
# B1: HBS α-helix 3 (XWAAWDKKI) (peptide)
# peptide: XWAAWDKKI
# modifications: X at position 1 is a pentenoic acid residue; N-terminal hydrogen bond surrogate (carbon-carbon bond by ring-closing metathesis in place of an i and i+4 hydrogen bond)
# notes: Shortest designed peptide with the Trp/Trp/Ile motif; also called peptide 3
# B2: HBS α-helix 4 (XAAAWEEWDKKI) (peptide)
# peptide: XAAAWEEWDKKI
# modifications: X at position 1 is a pentenoic acid residue; N-terminal hydrogen bond surrogate (carbon-carbon bond by ring-closing metathesis in place of an i and i+4 hydrogen bond)
# notes: Trp/Trp/Ile motif lies outside of the constraint; also called peptide 4
# B3: HBS α-helix 5 (XWAAWDREINNYT) (peptide)
# peptide: XWAAWDREINNYT
# modifications: X at position 1 is a pentenoic acid residue; N-terminal hydrogen bond surrogate (carbon-carbon bond by ring-closing metathesis in place of an i and i+4 hydrogen bond)
# notes: Similar to 1 and 2 but missing N-terminal Met-626 and Thr-627; also called peptide 5
# B4: Peptide 1 (AcMTWMEWDREINNYT-NH2), 14-residue C-peptide derived from gp41 (peptide)
# peptide: Ac-MTWMEWDREINNYT-NH2
# notes: Unconstrained parent peptide; also called unconstrained C-peptide
# B5: Fluorescein-labeled peptide 12 (suc-MTWMEWDREINNYTC^Flu) (peptide)
# peptide: Suc-MTWMEWDREINNYTC(fluorescein)-NH2
# notes: also called fluorescent probe 12; fluorescein-labeled C-peptide derivative
# B6: HBS α-helix 7 (XEMAWEEWDKKIEEYT) (peptide)
# peptide: XEMAWEEWDKKIEEYT
# modifications: X at position 1 is a pentenoic acid residue; N-terminal hydrogen bond surrogate (carbon-carbon bond by ring-closing metathesis in place of an i and i+4 hydrogen bond)
# notes: Thr-627 replaced with alanine; a glutamic acid added at the N-terminus; also called peptide 7
# B7: HBS α-helix 9 (XMTWEEWDKKIEEYTKKI) (peptide)
# peptide: XMTWEEWDKKIEEYTKKI
# modifications: X at position 1 is a pentenoic acid residue; internally-constrained α-helical region (hydrogen bond surrogate, carbon-carbon bond by ring-closing metathesis) spanning residues 1 through 4 of SEQ ID NO: 9
# notes: also called peptide 9
# B8: Peptide 10 (AcMTWEEWDKKIEEYTKKI-NH2) (peptide)
# peptide: Ac-MTWEEWDKKIEEYTKKI-NH2
# notes: Unconstrained counterpart of HBS α-helix 9; also called unconstrained peptide 10
# B9: HBS α-helix 2 (XMTWMEWDREINNYT) (peptide)
# peptide: [Pentenoic acid]MTWMEWDREINNYT
# modifications: staple (positions not given here); not fully specified (C-terminus, bridges)
# notes: HBS-constrained form of peptide 1; made on Rink amide resin; also called peptide 2
# B10: HBS α-helix 8 (XNEMTWEEWDKKIEEYT) (peptide)
# peptide: XNEMTWEEWDKKIEEYT
# modifications: X at position 1 is a pentenoic acid residue; N-terminal hydrogen bond surrogate (carbon-carbon bond by ring-closing metathesis in place of an i and i+4 hydrogen bond)
# notes: also called peptide 8
# B11: HBS α-helix 6 (XMTWEEWDKKIEEYT) (peptide)
# peptide: XMTWEEWDKKIEEYT
# modifications: X at position 1 is a pentenoic acid residue; N-terminal hydrogen bond surrogate (carbon-carbon bond by ring-closing metathesis in place of an i and i+4 hydrogen bond)
# notes: also called peptide 6
# What was measured:
# [1] = target: HIV-1 HXB2 envelope (gp41) expressed on CHO[HIVe] (clone 7d2) cells (HIV-1 (HXB2), UniProt P04578 512-856); assay: cell-based or functional assay
# IZN17 (peptide 11, …) [2] = target: T1, IZN17 (peptide 11, …); assay: fluorescence polarization competitive binding assay with peptide 12 as probe
# IZN17 (peptide 11, …) [3] = target: T1, IZN17 (peptide 11, …); assay: fluorescence polarization competition, displacement of peptide 12 from IZN17; value inexact because the peptide aggregates
# IZN17 (peptide 11, …) [4] = target: T1, IZN17 (peptide 11, …); assay: fluorescence polarization, direct saturation binding of fluorescein-labeled peptide 12 to IZN17, PBS, 25° C.
# IZN17 (peptide 11, …) [5] = target: T1, IZN17 (peptide 11, …); assay: fluorescence polarization competition, displacement of peptide 12 from IZN17
# IZN17 (peptide 11, …) [6] = target: T1, IZN17 (peptide 11, …); assay: fluorescence polarization competition, displacement of peptide 12 from IZN17; upper limit of the assay
# IZN17 (peptide 11, …) [7] = target: T1, IZN17 (peptide 11, …); assay: fluorescence polarization competition, displacement of peptide 12 from IZN17; compared with peptide 1
# HIV-1 HXB2 envelope (gp41) expressed on CHO[HIVe] (clone 7d2) cells, sequence (P04578 512-856): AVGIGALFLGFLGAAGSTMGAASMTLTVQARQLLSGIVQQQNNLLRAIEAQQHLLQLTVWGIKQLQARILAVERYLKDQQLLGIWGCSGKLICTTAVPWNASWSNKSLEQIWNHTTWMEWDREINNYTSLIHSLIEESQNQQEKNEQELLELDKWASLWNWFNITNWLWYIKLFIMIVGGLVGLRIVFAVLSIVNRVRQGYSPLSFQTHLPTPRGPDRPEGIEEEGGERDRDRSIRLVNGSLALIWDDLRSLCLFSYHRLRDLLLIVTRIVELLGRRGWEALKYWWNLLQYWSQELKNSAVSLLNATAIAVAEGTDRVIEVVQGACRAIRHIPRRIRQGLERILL
binder,measurement,setting,value
B1,"inhibition of gp41-mediated cell-cell fusion (syncytium formation, β-galactosidase activity)",[1],> 200
same,binding result,"IZN17 (peptide 11, …) [2]",no binding
B2,"inhibition of gp41-mediated cell-cell fusion (syncytium formation, β-galactosidase activity)",[1],> 200
same,binding result,"IZN17 (peptide 11, …) [2]",no binding
B3,"inhibition of gp41-mediated cell-cell fusion (syncytium formation, β-galactosidase activity)",[1],> 200
same,binding result,"IZN17 (peptide 11, …) [2]",no binding
B4,Kd,"IZN17 (peptide 11, …) [3]",37 µM
B5,Kd,"IZN17 (peptide 11, …) [4]",24 µM
B6,fold lower affinity than HBS α-helix 6,"IZN17 (peptide 11, …) [5]",20 fold
same,"inhibition of gp41-mediated cell-cell fusion (syncytium formation, β-galactosidase activity)",[1],> 200
B7,"inhibition of gp41-mediated cell-cell fusion (syncytium formation, β-galactosidase activity), EC50",[1],43 µM
same,Kd,"IZN17 (peptide 11, …) [6]",< 5 µM
B8,binding result,"IZN17 (peptide 11, …) [5]",binds
B9,binding result,"IZN17 (peptide 11, …) [7]",binds
same,"inhibition of gp41-mediated cell-cell fusion (syncytium formation, β-galactosidase activity)",[1],> 200
B10,"inhibition of gp41-mediated cell-cell fusion (syncytium formation, β-galactosidase activity)",[1],> 200
same,Kd,"IZN17 (peptide 11, …) [6]",< 5 µM
B11,binding result,"IZN17 (peptide 11, …) [5]",binds
same,"inhibition of gp41-mediated cell-cell fusion (syncytium formation, β-galactosidase activity)",[1],> 200
